In patent US20240352140A1 (Janssen / Centocor, published 2024):

How the values were obtained:
recombinant soluble BCMA = target: T1, recombinant soluble BCMA (Homo sapiens (Human), UniProt Q02223 1-54); test: cell-based or functional assay
T1 sequence: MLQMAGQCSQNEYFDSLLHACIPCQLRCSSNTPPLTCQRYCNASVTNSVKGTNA

[1] = target: T2, cynomolgus monkey BCMA (as used in SPR) (cynomolgus monkey); test: SPR; column printed 'Binding Affinity to BCMA (nM)', Cyno
T2 construct: also called cyno BCMA

B1: teclistamab (bispecific antibody, human IgG4 S228P, lambda, F234A L235A)
heavy 1: not shown
light 1: SYVLTQPPSVSVAPGQTARITCGGNNIGSKSVHWYQQPPGQAPVVVVYDDSDRPSGIPERFSGSNSGNTATLTISRVEAGDEAVYYCQVWDSSSDHVVFGGGTKLTVLGQPKAAPSVTLFPPSSEELQANKATLVCLISDFYPGAVTVAWKGDSSPVKAGVETTTPSKQSNNKYAASSYLSLTPEQWKSHRSYSCQVTHEGSTVEKTVAPTECS
heavy 2: EVQLVESGGGLVQPGGSLRLSCAASGFTFNTYAMNWVRQAPGKGLEWVARIRSKYNNYATYYAASVKGRFTISRDDSKNSLYLQMNSLKTEDTAVYYCARHGNFGNSYVSWFAYWGQGTLVTVSSASTKGPSVFPLAPCSRSTSESTAALGCLVKDYFPEPVTVSWNSGALTSGVHTFPAVLQSSGLYSLSSVVTVPSSSLGTKTYTCNVDHKPSNTKVDKRVESKYGPPCPPCPAPEAAGGPSVFLFPPKPKDTLMISRTPEVTCVVVDVSQEDPEVQFNWYVDGVEVHNAKTKPREEQFNSTYRVVSVLTVLHQDWLNGKEYKCKVSNKGLPSSIEKTISKAKGQPREPQVYTLPPSQEEMTKNQVSLTCLVKGFYPSDIAVEWESNGQPENNYKTTPPVLDSDGSFLLYSKLTVDKSRWQEGNVFSCSVMHEALHNHYTQKSLSLSLGK
light 2: QTVVTQEPSLTVSPGGTVTLTCRSSTGAVTTSNYANWVQQKPGQAPRGLIGGTNKRAPGTPARFSGSLLGGKAALTLSGVQPEDEAEYYCALWYSNLWVFGGGTKLTVLGQPKAAPSVTLFPPSSEELQANKATLVCLISDFYPGAVTVAWKADSSPVKAGVETTTPSKQSNNKYAASSYLSLTPEQWKSHRSYSCQVTHEGSTVEKTVAPTECS
notes: Humanized IgG4 proline, alanine, alanine (PAA)-based bispecific antibody with one BCMA arm (BCMB69) and one CD3 arm (CD3B219); also called JNJ-64007957; JNJ-957
Recombinant soluble BCMA
  cytotoxicity assay with spiked recombinant sBCMA (167 nM), reduction in potency: 2 fold
[1]
  Kd: 5.36 to 7.27 nM
